These results are taken from IntAct's records for PubMed 17579517.

The labels stand for the following.
B1: Serine/threonine-protein kinase PINK1, mitochondrial (Homo sapiens), Q9BXM7-1 (parent)
chain: MAVRQALGRGLQLGRALLLRFTGKPGRAYGLGRPGPAAGCVRGERPGWAAGPGAEPRRVGLGLPNRLRFFRQSVAGLAARLQRQFVVRAWGCAGPCGRAVFLAFGLGLGLIEEKQAESRRAVSACQEIQAIFTQKSKPGPDPLDTRRLQGFRLEEYLIGQSIGKGCSAAVYEATMPTLPQNLEVTKSTGLLPGRGPGTSAPGEGQERAPGAPAFPLAIKMMWNISAGSSSEAILNTMSQELVPASRVALAGEYGAVTYRKSKRGPKQLAPHPNIIRVLRAFTSSVPLLPGALVDYPDVLPSRLHPEGLGHGRTLFLVMKNYPCTLRQYLCVNTPSPRLAAMMLLQLLEGVDHLVQQGIAHRDLKSDNILVELDPDGCPWLVIADFGCCLADESIGLQLPFSSWYVDRGGNGCLMAPEVSTARPGPRAVIDYSKADAWAVGAIAYEIFGLVNPFYGQGKAHLESRSYQEAQLPALPESVPPDVRQLVRALLQREASKRPSARVAANVLHLSLWGEHILALKNLKLDKMVGWLLQQSAATLLANRLTEKCCVETKMKMLFLANLECETLCQAALLLCSWRAAL
partner: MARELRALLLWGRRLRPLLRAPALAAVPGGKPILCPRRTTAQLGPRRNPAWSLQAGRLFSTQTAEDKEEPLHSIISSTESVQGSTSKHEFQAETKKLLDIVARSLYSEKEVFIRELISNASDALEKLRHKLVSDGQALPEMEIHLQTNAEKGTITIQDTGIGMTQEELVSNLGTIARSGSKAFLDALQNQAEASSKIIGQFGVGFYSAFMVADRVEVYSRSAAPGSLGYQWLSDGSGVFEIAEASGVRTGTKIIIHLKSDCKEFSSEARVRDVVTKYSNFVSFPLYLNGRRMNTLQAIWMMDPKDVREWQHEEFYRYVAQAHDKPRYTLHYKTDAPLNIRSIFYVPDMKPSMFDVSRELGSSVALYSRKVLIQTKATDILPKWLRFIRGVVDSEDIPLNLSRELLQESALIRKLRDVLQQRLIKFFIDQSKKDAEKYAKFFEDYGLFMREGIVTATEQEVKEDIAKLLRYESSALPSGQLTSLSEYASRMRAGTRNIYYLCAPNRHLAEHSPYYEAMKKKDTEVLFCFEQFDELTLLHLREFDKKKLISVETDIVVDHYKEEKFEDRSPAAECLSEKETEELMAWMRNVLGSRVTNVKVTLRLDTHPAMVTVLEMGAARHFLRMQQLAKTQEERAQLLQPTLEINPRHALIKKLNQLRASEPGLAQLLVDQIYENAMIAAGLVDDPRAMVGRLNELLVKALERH

The assay covers variants of B1. The following applies: with trap1_human TRAP1, Q12931.
As to D362A, the “effect of a mutation on the interaction” value is “decreasing interaction”.

Regarding K219A;D362A;D384A, the “effect of a mutation on the interaction” value is “decreasing interaction”.

For the variant L347P, the “effect of a mutation on the interaction” value was “decreasing interaction”. As for D384A, the entry is “decreasing interaction”; as for G309D, “decreasing interaction”.
